# Assay results from patent publication US20240376151A1, “STAPLED PEPTIDES AND METHODS THEREOF” (FOG PHARMACEUTICALS, INC., priority 2022, published 2024).
# Numbered stars: 1 amine (or outer) side, 2 acyl side, 3 side chain; on linkers, the order of the positions; unused ones are H or OH. Bridge positions count the residues as written; N and C are the ends. Ends that are not written are not given here. Phenylene(1,4-NHCOCH2)2 = O=C(C[*:1])Nc1ccc(NC(=O)C[*:2])cc1
# Columns and labels:
# MDM2 = target: T1, MDM2 (Homo sapiens, UniProt Q00987); experiment: Naive Library Presenter Screening (phage, NGS), MDM2; type: binding; details: for interaction data, BLANK: Blank = Media only
# T1 construct: made in house
# CHIP = target: T2, CHIP (Homo sapiens, UniProt Q9UNE7); experiment: Naive Library Presenter Screening (phage, NGS), CHIP; type: binding; details: for interaction data, BLANK: Blank = Media only
# T2 construct: N-term truncated CHIP (also known as STUB1, Uniprot ID: Q9UNE7, residues 23-303); made in house; host or cells: E. coli BL21 CodonPlus
# T2 sequence (Q9UNE7 23-303): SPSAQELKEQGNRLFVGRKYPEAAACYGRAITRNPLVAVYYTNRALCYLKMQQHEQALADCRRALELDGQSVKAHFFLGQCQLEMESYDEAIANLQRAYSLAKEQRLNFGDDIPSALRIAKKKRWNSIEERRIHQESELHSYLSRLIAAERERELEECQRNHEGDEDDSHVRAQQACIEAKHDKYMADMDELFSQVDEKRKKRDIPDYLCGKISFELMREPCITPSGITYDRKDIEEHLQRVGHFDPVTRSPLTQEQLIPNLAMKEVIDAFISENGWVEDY
# Experimental: To conduct phage library screening, previously described procedures were utilized in accordance with the present disclosure.
# Next-generation sequencing was performed as described in accordance with the present disclosure.
# Hit ID and Clustering is performed according to a described procedure in accordance with the present disclosure.
# [1] = MDM2 clusters (C82, C85), first column
# [2] = MDM2 clusters (C82, C85), second column
# [3] = MDM2 clusters (C82, C85), target concentration 10 nM
# [4] = MDM2 clusters (C82, C85), target concentration 30 nM
# [5] = MDM2 clusters (C82, C85), target concentration 100 nM
# [6] = MDM2 clusters (C82, C85), target concentration 300 nM
# [7] = MDM2 clusters (C82, C85), target concentration 1000 nM, first column
# [8] = MDM2 clusters (C82, C85), target concentration 1000 nM, second column
# [9] = CHIP clusters (C83, C84), first column
# [10] = CHIP clusters (C83, C84), second column
# [11] = CHIP clusters (C83, C84), target concentration 10 nM
# [12] = CHIP clusters (C83, C84), target concentration 30 nM
# [13] = CHIP clusters (C83, C84), target concentration 100 nM
# [14] = CHIP clusters (C83, C84), target concentration 300 nM
# [15] = CHIP clusters (C83, C84), target concentration 1000 nM, first column
# [16] = CHIP clusters (C83, C84), target concentration 1000 nM, second column
# [17] = CHIP target concentration 10 nM
# [18] = CHIP target concentration 30 nM
# [19] = CHIP target concentration 100 nM
# [20] = CHIP target concentration 300 nM
# [21] = CHIP target concentration 1000 nM, first column
# [22] = CHIP target concentration 1000 nM, second column
# T1 sequence (Q00987 25-109): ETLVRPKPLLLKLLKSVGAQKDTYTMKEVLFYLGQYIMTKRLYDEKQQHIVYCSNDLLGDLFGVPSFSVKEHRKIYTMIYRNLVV
Sequence,"interaction data, BLANK (MDM2; [1])","interaction data, BLANK (MDM2; [2])",interaction data at Target Concentration 10 (MDM2; [3]),interaction data at Target Concentration 30 (MDM2; [4]),interaction data at Target Concentration 100 (MDM2; [5]),interaction data at Target Concentration 300 (MDM2; [6]),interaction data at Target Concentration 1000 (MDM2; [7]),interaction data at Target Concentration 1000 (MDM2; [8]),other results
"DPAYASCFSAAWDCQFW (linker 7-14 via Phenylene(1,4-NHCOCH2)2 (inferred))",–,–,–,–,–,–,–,–,"interaction data at Target Concentration 10 (MDM2; MDM2 target concentration 10 nM): 0; interaction data at Target Concentration 30 (MDM2; MDM2 target concentration 30 nM): 0; interaction data at Target Concentration 100 (MDM2; MDM2 target concentration 100 nM): 19; interaction data at Target Concentration 300 (MDM2; MDM2 target concentration 300 nM): 21; interaction data at Target Concentration 1000 (MDM2; MDM2 target concentration 1000 nM, first column): 13; interaction data at Target Concentration 1000 (MDM2; MDM2 target concentration 1000 nM, second column): 38"
"DPARVHCNQAAFMCHWV (DPARVHCNQAAFMCHWV-NH2; linker 7-14 via Phenylene(1,4-NHCOCH2)2 (inferred))",0,0,0,0,9,6,14,8,–
"DPAQHHCQQAAFWCQWW (DPAQHHCQQAAFWCQWW-NH2; linker 7-14 via Phenylene(1,4-NHCOCH2)2 (inferred))",0,0,0,0,13,13,36,18,–
"DPAHYECTDAAFECYWF (linker 7-14 via Phenylene(1,4-NHCOCH2)2 (inferred))",0,0,0,2,33,74,57,82,–
"DPATESCEDAAFWCHWI (DPATESCEDAAFWCHWI-NH2; linker 7-14 via Phenylene(1,4-NHCOCH2)2 (inferred))",0,0,0,0,30,30,30,70,–
"DPAINTCQDAAFWCYWS (linker 7-14 via Phenylene(1,4-NHCOCH2)2 (inferred))",0,0,0,131,203,226,185,315,–
"DPASADCFNAAWDCMWI (DPASADCFNAAWDCMWI-NH2; linker 7-14 via Phenylene(1,4-NHCOCH2)2 (inferred))",0,0,0,19,102,165,124,209,–
"DPALMQCTEAAFWCYWE (linker 7-14 via Phenylene(1,4-NHCOCH2)2 (inferred); not fully specified (C-terminus))",0,0,0,0,24,36,24,32,–
"DPAYEDCFFAAWNCMMV (linker 7-14 via Phenylene(1,4-NHCOCH2)2 (inferred))",0,0,0,5,18,17,23,39,–
"DPASQWCQRAASICWID (DPASQWCQRAASICWID-NH2; linker 7-14 via Phenylene(1,4-NHCOCH2)2 (inferred))",–,–,–,–,–,–,–,–,"interaction data, BLANK (CHIP; [9]): 0; interaction data, BLANK (CHIP; [10]): 0; interaction data at Target Concentration 10 (CHIP; [11]): 0; interaction data at Target Concentration 30 (CHIP; [12]): 0; interaction data at Target Concentration 100 (CHIP; [13]): 0; interaction data at Target Concentration 300 (CHIP; [14]): 15; interaction data at Target Concentration 1000 (CHIP; [15]): 18; interaction data at Target Concentration 1000 (CHIP; [16]): 8"
"DPAEYACYHAASICNVD (linker 7-14 via Phenylene(1,4-NHCOCH2)2 (inferred))",–,–,–,–,–,–,–,–,"interaction data, BLANK (CHIP; [9]): 0; interaction data, BLANK (CHIP; [10]): 0; interaction data at Target Concentration 10 (CHIP; [11]): 0; interaction data at Target Concentration 30 (CHIP; [12]): 0; interaction data at Target Concentration 100 (CHIP; [13]): 54; interaction data at Target Concentration 300 (CHIP; [14]): 61; interaction data at Target Concentration 1000 (CHIP; [15]): 31; interaction data at Target Concentration 1000 (CHIP; [16]): 91"
"ICYTAWLECE (linker 2-9 via Phenylene(1,4-NHCOCH2)2 (inferred))",–,–,–,–,–,–,–,–,interaction data at Target Concentration 10 (CHIP; [17]): 0; interaction data at Target Concentration 30 (CHIP; [18]): 1; interaction data at Target Concentration 100 (CHIP; [19]): 5; interaction data at Target Concentration 300 (CHIP; [20]): 9; interaction data at Target Concentration 1000 (CHIP; [21]): 7; interaction data at Target Concentration 1000 (CHIP; [22]): 12
"PCWSAWLACEL (linker 2-9 via Phenylene(1,4-NHCOCH2)2 (inferred))",–,–,–,–,–,–,–,–,interaction data at Target Concentration 10 (CHIP; [17]): 0; interaction data at Target Concentration 30 (CHIP; [18]): 81; interaction data at Target Concentration 100 (CHIP; [19]): 72; interaction data at Target Concentration 300 (CHIP; [20]): 130; interaction data at Target Concentration 1000 (CHIP; [21]): 220; interaction data at Target Concentration 1000 (CHIP; [22]): 206
"DPAFERCQLAAAFCYDS (linker 7-14 via Phenylene(1,4-NHCOCH2)2 (inferred))",–,–,–,–,–,–,–,–,"interaction data, BLANK (CHIP; [9]): 0; interaction data, BLANK (CHIP; [10]): 0; interaction data at Target Concentration 10 (CHIP; [11]): 0; interaction data at Target Concentration 30 (CHIP; [12]): 0; interaction data at Target Concentration 100 (CHIP; [13]): 2; interaction data at Target Concentration 300 (CHIP; [14]): 15; interaction data at Target Concentration 1000 (CHIP; [15]): 60; interaction data at Target Concentration 1000 (CHIP; [16]): 47"
"PCFEAWVMCEI (linker 2-9 via Phenylene(1,4-NHCOCH2)2 (inferred))",–,–,–,–,–,–,–,–,interaction data at Target Concentration 10 (CHIP; [17]): 4; interaction data at Target Concentration 30 (CHIP; [18]): 83; interaction data at Target Concentration 100 (CHIP; [19]): 121; interaction data at Target Concentration 300 (CHIP; [20]): 285; interaction data at Target Concentration 1000 (CHIP; [21]): 375; interaction data at Target Concentration 1000 (CHIP; [22]): 297
"PCWNAWLYCSN (linker 2-9 via Phenylene(1,4-NHCOCH2)2 (inferred))",–,–,–,–,–,–,–,–,interaction data at Target Concentration 10 (CHIP; [17]): 0; interaction data at Target Concentration 30 (CHIP; [18]): 0; interaction data at Target Concentration 100 (CHIP; [19]): 11; interaction data at Target Concentration 300 (CHIP; [20]): 105; interaction data at Target Concentration 1000 (CHIP; [21]): 155; interaction data at Target Concentration 1000 (CHIP; [22]): 58
